Experimental data published in PMC4946879.

Key:
[1] = target: HIV-1 Gag CTD-SP1 (residues 281–377 of HIV-1 NL4-3 Gag, P373T) (HIV-1 NL4-3); assay: crystal structure; plate crystals of stacked flat hexagonal lattices; 0.1 M Bis-Tris propane, pH 7-8, 0.8-1.0 M LiSO4; sitting drops, 1:2 protein:precipitant; 3.27 Å
[2] = target: HIV-1 Gag CTD-SP1 (residues 281–377 of HIV-1 NL4-3 Gag, P373T) (HIV-1 NL4-3); assay: crystal structure; other crystal hits from screens with commercial and in-house precipitants; mature-like dimer form of the CTD with disordered SP1 tails; not deposited

HIV-1 Gag CTD-SP1 (residues 281–377 of HIV-1 NL4-3 Gag, P373T) (domain or fragment)
stoichiometry N [1]: 6 | stoichiometry N [2]: 2
